# Reference: article PMC3968163
# B1: unnamed (parent)
# chain 1: SIDPADLDESWDYIFETTESPSSD
# chain 2: MSHSGAAIFEKVSGIIAINEDVSPAELTWRSTDGDKVHTVVLSTIDKLQATPASSEKMMLRLIGKVDESKKRKDNEGNEVVPKPQRHMFSFNNRTVMDNIKMTLQQIISRYKDAD
# Variants of: B1
# Assay: ITC
# Details: with partner chain of the complex shown; 25°C in a 20 mM Tris pH 7.4
row,Variant,Kd
1,chain 1 I14S,4.2 µM
